Three substances from US10087225B2, “Formulation of MK2 inhibitor peptides” (MOERAE MATRIX, INC., priority 2015, dated 2018) can be followed below.

Among the targets are SAPK2a(T106M)(h) (Homo sapiens, UniProt Q16539, T106M); EGFR(L861Q)(h) (Homo sapiens, UniProt P00533, L861Q); EphA4(h) (Homo sapiens, UniProt P54764); PAK2(h) (Homo sapiens, UniProt Q13177); cSRC(h) (Homo sapiens, UniProt P12931); WNK3(h) (Homo sapiens, UniProt Q9BYP7).
Common to all, as to test: Kinase Profiling Assay
Common to all, as to type: biochemical
What all share (settings): for % activity: 100 μM

A further test concerns the target T1, DMPK(h) (Homo sapiens, UniProt Q09013).
T1 sequence (Q09013 1-629): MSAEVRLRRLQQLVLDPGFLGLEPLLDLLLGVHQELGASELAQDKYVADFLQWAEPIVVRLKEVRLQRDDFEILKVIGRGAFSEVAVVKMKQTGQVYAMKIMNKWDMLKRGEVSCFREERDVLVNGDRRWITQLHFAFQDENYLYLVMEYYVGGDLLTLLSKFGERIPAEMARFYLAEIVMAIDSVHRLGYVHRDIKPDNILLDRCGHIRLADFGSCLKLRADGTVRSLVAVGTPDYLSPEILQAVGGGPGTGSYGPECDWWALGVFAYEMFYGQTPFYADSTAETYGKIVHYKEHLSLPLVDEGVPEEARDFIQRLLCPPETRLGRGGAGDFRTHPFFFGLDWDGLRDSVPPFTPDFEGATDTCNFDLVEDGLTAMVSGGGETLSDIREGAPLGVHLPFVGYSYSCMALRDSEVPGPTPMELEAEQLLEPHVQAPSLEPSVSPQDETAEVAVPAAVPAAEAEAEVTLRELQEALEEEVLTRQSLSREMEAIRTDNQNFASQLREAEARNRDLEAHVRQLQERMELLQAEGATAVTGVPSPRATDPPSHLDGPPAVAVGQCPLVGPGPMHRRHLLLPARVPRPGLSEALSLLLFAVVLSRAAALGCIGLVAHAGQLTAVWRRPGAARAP

The next test has as its target T2, PKCζ(h) (Homo sapiens, UniProt Q05513).
T2 sequence (Q05513 1-592): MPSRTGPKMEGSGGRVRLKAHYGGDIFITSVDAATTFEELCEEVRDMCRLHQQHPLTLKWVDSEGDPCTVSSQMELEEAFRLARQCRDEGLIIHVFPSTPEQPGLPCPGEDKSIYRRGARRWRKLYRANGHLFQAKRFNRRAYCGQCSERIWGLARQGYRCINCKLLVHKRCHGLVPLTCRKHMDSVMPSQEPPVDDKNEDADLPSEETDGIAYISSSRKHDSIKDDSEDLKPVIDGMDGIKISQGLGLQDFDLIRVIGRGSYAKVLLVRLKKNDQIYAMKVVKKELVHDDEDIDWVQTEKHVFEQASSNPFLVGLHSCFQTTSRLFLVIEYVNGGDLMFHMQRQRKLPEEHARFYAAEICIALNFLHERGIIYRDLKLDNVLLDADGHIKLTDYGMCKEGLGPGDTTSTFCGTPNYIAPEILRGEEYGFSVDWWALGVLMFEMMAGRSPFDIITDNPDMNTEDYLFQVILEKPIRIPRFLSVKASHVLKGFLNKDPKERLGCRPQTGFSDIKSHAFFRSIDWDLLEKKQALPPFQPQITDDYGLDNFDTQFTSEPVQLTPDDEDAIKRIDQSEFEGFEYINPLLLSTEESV

The target of another test is T3, EphA8(h) (Homo sapiens, UniProt P29322).
T3 sequence (P29322 28-1005): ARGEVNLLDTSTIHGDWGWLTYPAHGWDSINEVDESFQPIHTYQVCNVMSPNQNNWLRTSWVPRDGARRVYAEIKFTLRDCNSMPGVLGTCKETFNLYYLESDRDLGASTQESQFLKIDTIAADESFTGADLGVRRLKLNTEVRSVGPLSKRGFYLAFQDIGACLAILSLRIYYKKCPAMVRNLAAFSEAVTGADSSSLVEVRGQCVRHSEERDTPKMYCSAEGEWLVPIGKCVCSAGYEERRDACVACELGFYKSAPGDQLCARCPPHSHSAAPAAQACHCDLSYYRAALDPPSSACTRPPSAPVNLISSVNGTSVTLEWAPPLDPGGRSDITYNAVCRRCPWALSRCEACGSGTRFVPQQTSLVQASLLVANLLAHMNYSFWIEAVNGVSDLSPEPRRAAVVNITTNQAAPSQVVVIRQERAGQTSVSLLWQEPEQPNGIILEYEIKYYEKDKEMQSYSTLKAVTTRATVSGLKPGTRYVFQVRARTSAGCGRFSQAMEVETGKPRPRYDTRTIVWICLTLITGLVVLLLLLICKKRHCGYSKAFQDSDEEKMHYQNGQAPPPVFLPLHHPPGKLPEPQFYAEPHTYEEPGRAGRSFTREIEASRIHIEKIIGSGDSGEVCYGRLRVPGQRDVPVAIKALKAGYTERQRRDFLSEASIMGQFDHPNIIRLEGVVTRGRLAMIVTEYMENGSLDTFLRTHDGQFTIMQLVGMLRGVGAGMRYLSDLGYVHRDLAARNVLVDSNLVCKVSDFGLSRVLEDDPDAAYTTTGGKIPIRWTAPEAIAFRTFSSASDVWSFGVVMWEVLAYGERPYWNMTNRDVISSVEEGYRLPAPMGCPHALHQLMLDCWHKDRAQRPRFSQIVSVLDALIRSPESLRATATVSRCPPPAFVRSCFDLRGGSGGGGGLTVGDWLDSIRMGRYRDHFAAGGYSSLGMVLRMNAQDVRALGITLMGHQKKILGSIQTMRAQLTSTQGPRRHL

PAK2(h), sequence (Q13177 whole entry): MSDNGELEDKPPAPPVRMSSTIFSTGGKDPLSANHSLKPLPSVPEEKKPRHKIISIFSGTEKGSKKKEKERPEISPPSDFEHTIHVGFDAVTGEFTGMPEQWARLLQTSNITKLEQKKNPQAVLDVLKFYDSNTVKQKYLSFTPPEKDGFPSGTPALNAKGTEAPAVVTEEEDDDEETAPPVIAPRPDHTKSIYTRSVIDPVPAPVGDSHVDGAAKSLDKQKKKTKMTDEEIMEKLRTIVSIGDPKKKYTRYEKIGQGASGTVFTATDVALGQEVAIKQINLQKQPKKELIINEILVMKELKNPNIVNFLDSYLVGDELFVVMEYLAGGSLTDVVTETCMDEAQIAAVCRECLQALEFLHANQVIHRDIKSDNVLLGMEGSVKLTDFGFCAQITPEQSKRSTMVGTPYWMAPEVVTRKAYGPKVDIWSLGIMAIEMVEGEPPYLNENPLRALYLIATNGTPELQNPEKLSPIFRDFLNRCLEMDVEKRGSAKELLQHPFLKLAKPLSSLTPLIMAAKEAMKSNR
WNK3(h), sequence (Q9BYP7 whole entry): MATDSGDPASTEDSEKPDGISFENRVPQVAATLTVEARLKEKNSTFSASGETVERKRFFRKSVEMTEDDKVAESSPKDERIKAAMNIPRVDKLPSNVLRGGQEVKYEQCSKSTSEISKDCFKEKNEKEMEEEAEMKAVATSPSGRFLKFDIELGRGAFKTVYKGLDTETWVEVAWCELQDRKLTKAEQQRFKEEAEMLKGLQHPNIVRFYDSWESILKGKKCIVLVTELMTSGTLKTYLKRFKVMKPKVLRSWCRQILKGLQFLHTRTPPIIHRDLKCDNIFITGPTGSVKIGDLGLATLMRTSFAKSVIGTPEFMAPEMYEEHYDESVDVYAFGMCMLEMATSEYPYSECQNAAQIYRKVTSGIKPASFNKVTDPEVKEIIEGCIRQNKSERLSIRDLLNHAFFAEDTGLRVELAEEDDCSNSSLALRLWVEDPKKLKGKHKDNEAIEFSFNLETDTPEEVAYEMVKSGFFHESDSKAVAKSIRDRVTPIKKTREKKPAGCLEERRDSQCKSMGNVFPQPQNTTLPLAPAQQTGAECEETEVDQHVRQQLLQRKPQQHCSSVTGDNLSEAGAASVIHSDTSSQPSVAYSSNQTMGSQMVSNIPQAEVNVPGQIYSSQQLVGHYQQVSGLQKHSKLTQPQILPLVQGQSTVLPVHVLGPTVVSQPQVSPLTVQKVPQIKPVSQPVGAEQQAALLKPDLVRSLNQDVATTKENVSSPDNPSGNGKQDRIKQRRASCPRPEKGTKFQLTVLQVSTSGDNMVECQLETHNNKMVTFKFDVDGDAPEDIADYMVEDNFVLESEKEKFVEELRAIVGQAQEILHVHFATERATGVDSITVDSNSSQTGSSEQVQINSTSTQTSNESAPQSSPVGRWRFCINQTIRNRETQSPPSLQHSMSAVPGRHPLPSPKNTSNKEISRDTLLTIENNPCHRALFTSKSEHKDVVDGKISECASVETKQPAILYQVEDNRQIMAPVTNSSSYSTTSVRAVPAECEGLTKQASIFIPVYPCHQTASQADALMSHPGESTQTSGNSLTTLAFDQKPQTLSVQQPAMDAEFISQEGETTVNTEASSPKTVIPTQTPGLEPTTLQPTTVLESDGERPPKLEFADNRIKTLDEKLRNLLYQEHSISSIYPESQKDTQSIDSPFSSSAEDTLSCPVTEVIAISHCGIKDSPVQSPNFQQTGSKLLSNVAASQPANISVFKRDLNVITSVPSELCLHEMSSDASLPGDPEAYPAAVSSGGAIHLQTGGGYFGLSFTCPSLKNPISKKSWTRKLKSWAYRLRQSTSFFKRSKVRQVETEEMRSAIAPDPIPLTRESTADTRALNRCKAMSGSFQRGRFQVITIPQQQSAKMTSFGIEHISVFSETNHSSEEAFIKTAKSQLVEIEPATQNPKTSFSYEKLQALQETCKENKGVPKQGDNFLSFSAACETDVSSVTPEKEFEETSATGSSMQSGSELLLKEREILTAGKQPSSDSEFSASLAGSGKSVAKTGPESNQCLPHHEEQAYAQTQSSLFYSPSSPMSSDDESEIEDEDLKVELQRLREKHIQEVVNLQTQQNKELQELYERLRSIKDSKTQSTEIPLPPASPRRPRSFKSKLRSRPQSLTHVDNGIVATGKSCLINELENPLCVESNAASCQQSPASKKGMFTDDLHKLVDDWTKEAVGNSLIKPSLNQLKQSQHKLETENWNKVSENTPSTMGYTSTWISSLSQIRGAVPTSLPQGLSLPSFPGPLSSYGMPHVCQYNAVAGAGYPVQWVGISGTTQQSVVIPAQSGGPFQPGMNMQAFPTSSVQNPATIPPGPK
SAPK2a(T106M)(h), sequence (Q16539 whole entry T106M): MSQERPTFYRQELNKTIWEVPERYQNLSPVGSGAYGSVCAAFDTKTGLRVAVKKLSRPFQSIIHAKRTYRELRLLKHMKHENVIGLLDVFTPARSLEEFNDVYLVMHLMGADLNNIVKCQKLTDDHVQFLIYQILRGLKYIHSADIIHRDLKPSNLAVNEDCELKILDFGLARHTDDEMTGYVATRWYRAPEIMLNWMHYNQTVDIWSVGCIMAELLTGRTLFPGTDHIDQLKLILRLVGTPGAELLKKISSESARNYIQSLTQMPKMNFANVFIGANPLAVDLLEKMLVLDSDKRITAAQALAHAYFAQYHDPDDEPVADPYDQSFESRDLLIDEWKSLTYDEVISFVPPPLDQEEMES
EphA4(h), sequence (P54764 20-986): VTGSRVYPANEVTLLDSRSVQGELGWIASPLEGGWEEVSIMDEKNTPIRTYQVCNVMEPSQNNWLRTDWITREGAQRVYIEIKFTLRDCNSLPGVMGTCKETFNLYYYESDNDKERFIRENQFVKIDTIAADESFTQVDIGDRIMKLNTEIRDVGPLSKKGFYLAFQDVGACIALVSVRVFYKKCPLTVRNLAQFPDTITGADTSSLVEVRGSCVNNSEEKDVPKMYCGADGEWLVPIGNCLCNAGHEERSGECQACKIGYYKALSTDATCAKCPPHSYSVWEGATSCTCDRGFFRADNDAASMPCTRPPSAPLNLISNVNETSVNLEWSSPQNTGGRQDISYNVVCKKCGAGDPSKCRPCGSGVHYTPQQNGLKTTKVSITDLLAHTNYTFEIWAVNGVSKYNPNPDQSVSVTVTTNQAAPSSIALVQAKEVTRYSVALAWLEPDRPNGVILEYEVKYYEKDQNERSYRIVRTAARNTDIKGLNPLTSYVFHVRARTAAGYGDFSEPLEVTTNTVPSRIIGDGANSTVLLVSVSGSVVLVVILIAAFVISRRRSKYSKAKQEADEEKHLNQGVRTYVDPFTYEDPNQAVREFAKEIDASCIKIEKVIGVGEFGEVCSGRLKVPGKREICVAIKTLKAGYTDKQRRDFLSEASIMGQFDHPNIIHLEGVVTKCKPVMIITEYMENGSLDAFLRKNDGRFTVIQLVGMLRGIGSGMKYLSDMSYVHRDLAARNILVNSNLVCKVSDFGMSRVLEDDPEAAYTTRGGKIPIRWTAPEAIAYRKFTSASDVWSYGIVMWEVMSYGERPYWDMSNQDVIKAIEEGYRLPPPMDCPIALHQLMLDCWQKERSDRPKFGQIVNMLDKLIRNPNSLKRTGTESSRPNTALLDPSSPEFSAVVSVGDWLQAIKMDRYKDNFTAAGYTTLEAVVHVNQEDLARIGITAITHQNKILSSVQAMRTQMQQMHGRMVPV

Take H-YARAAARQARAKALARQLGVAA-OH [MMI-0100]: the activity at 100 µM on DMPK(h) is 60%; at SAPK2a(T106M)(h) it was 101%; at EGFR(L861Q)(h) it was 53%; at EphA4(h), 110%; at PKCζ(h), 82%; on EphA8(h), 181%. Besides, the values for the activity at 100 µM at PAK2(h), at cSRC(h) and at WNK3(h) were 71%, 70% and 100%, respectively.

For the substance “HRRIKAWLKKIKALARQLGVAA (Mammalian) [MMI-0500]”, the “% activity” value in the test with DMPK(h) worked out at 12%; with SAPK2a(T106M)(h), 32%; in the test with EGFR(L861Q)(h) it was 15%; in the test with EphA4(h), 48%; with PKCζ(h), 7%; with EphA8(h), 337%. Moreover, the “% activity” value is reported as 44% with PAK2(h), 30% in the test with cSRC(h) and 9% with WNK3(h).

“YARAAARQARAKALNRQLGVA (Mammalian) [MMI-0200]”: the “% activity” value with DMPK(h) stood at 66%; with SAPK2a(T106M)(h) it was 100%; with EGFR(L861Q)(h) it was 74%; with EphA4(h) it was 127%; with PKCζ(h) it was 98%; with EphA8(h), 133%. Also, the figures for the “% activity” value in the test with PAK2(h), in the test with cSRC(h) and in the test with WNK3(h) were 69%, 32% and 97%, respectively.
